Assays:
[1] = biological target: DyLight 650 (DyL650)-labeled LAG-3 fusion protein; experiment: flow cytometry competition: antibody titrated against binding of the DyL650-labeled LAG-3 fusion protein to MHC class II on Daudi cells; readout MFI (Dyl650)
[2] = biological target: T1, human LAG-3 expressed on the surface of CHO cells (human, UniProt P18627 23-525); experiment: binding to LAG-3 expressing CHO cells
T1 construct: whole, on cells; also called LAG-3 expressing CHO cells; cell-surface-expressed LAG-3
T1 sequence (looked up): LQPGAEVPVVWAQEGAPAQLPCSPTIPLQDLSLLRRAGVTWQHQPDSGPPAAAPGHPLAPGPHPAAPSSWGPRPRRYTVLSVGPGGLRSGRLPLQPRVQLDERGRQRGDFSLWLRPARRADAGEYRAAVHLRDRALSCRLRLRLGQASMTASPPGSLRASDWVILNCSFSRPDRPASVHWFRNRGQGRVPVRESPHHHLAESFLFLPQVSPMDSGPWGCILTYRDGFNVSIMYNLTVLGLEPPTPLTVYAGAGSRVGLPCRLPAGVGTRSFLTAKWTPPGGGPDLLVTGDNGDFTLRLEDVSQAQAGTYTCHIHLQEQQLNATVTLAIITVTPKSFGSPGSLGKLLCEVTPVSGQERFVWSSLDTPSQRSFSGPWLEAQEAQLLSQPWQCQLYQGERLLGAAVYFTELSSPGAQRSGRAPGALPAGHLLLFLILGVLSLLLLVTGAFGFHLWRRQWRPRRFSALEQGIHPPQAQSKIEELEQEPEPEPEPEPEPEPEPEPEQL

[3] = biological target: T2, cynomolgus monkey LAG-3 expressed on the surface of CHO cells (cynomolgus monkey); experiment: binding to LAG-3 expressing CHO cells
T2 construct: whole, on cells; also called Cyno LAG-3; LAG-3 expressing CHO cells

[4] = biological target: T3, recombinant soluble human LAG-3 (human, UniProt P18627 23-450, limits assumed); experiment: SPR, recombinant soluble LAG-3
T3 construct: also called soluble LAG-3
T3 sequence (looked up): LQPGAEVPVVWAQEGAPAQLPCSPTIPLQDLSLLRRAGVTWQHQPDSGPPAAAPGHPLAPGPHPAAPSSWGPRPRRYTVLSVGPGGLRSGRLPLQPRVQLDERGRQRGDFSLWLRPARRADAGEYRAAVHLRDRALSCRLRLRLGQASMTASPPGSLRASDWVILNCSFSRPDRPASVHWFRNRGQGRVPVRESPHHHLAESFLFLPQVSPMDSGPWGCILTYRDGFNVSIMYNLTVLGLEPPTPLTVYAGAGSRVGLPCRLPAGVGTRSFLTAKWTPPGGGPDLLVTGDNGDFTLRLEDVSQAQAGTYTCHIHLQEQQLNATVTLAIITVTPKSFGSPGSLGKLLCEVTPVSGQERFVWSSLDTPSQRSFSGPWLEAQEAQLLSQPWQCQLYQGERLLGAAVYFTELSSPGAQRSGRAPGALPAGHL

[5] = biological target: T4, recombinant soluble cynomolgus monkey LAG-3 (cynomolgus monkey); experiment: SPR, recombinant soluble LAG-3
T4 construct: also called Cyno LAG-3; soluble LAG-3

[6] = biological target: T5, LAG-3 expressed on Jurkat cells (Homo sapiens (Human), UniProt P18627 23-525); experiment: cell-based or functional assay
T5 sequence: T1 sequence (looked up)

[7] = biological target: T6, LAG-3 (axis label "%LAG-3 OCCUPANCY", DONOR 1 to DONOR 4) (human, UniProt P18627); experiment: receptor occupancy assay on SEB-stimulated human donor PBMCs (4 donors)
T6 construct: full-length, on the cell surface; also called LAG-3 on SEB-stimulated human donor PBMCs
T6 sequence (receptor, looked up): T1 sequence (looked up)

B1: anti-LAG-3 antibody agent TSR-033 (antibody, human IgG4 S228P, kappa, V domains shown)
VH: EVQLVQSGAEVKKPGATVKISCKASGFSIKDDYIHWVQQAPGKGLEWMGWIDAMNDDSQYSSKFQGRVTITVDTSTNTAYMKLSSLRSEDTAVYYCTYAFGGYWGQGTTVTVSS
VL: DIVMTQTPLSLSVTPGQPASISCRSSQSLVHSDSNTYLHWYLQKPGQSPQLLIYLVSNRFSGVPDRFSGSGSGTDFTLKISRVEAEDVGVYFCGQSTHVPYAFGGGTKVEIKR
modifications: N-glycosylation at N291 of the heavy chain
notes: also called exemplary anti-LAG-3 antibody agent; exemplary anti-LAG-3 antibody
IC50 [1]: 3.4 nM
EC50 [2]: 0.8 nM
EC50 [3]: 2.6 nM
Kd [4]: 0.95 nM
koff [4]: 0.00013 s⁻¹
Kd [5]: 2 nM
koff [5]: 0.00026 s⁻¹
EC50 (read off the curve); NFAT-luciferase reporter signal (RLU) [6]: ~70 nM
EC50 (read off the curve) [7]: ~0.06 µg/mL
